Literature values, collected in patent US6664231B1, “Anti-fungal peptides” (priority 1993, dated 2003).

How the values were obtained:
[1] = tested on: gram-negative bacteria; conditions: as low as; cited from earlier work
[2] = tested on: gram-positive organisms Staphylococcus aureus, Staphylococcus epidermidis, Streptococcus faecalis, Bacillus subtilis, Micrococcus lysodeikricus, Listeria …; conditions: 10^−6 M or 160 μg/ml, pH 7.0 or 5.5; cited from earlier work
[3] = tested on: Candida albicans and Candida parapsilosis; conditions: 10^−6 M, pH 7.0 or 5.5; cited from earlier work
[4] = tested on: human, rabbit and sheep red blood cells and several human tumor cell lines; conditions: cited from earlier work

B1: BPI: bactericidal/permeability-increasing protein isolated from the granules of mammalian polymorphonuclear leukocytes (protein, UniProt P17213 32-487, looked up)
Bactericidal …: VNPGVVVRISQKGLDYASQQGTAALQKELKRIKIPDYSDSFKIKHLGKGHYSFYSMDIREFQLPSSQISMVPNVGLKFSISNANIKISGKWKAQKRFLKMSGNFDLSIEGMSISADLKLGSNPTSGKPTITCSSCSSHINSVHVHISKSKVGWLIQLFHKKIESALRNKMNSQVCEKVTNSVSSELQPYFQTLPVMTKIDSVAGINYGLVAPPATTAETLDVQMKGEFYSENHHNPPPFAPPVMEFPAAHDRMVYLGLSDYFFNTAGLVYQEAGVLKMTLRDDMIPKESKFRLTTKFFGTFLPEVAKKFPNMKIQIHVSASTPPHLSVQPTGLTFYPAVDVQAFAVLPNSSLASLFLIGMHTTGSMEVSAESNRLVGELKLDRLLLELKHSNIGPFPVELLQDIMNYIVPILVLPRVNEKLQKGFPLPTPARVQLYNVVLQPHQNFLLFGADVVYK
[1]
  concentration exhibiting anti-bacterial activity towards gram-negative bacteria: 10^−8 to 10^−9 M
[2]
  toxic effect on gram-positive organisms: no toxic effect
[3]
  toxic effect on fungi: no toxic effect
[4]
  toxicity to higher eukaryotic cells: non-toxic
